Test system: MS2 coat protein
Assay: apparent KD of MS2 coat protein; designed switch direction (-1 OFF switch, 1 ON switch): -1; higher = weaker reporter binding
How it was run: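 An oligonucleotide input, 200 uM small-molecule ligand, or no input was present during titration of SNAP-549-labelled MS2 coat protein, which was doubled from 0.7 or 1.5 nM to 3 µM. Designed RNA switches had been transcribed on Illumina chips by stalled E. coli RNA polymerase. Apparent KD per design is the median over clusters of curves fitted to normalised cluster fluorescence.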

[1] = input ligand: microRNA oligo, concentration not stated
[2] = Eterna round: R95, input ligand: FMN 200 uM
[3] = Eterna round: R95, input ligand: microRNA oligo, concentration not stated
[4] = Eterna round: R95, input ligand: none

| Sequence | apparent KD of MS2 coat protein (input ligand: FMN 200 uM) [nM] | apparent KD of MS2 coat protein [1] [nM] | apparent KD of MS2 coat protein (input ligand: none) [nM] | apparent KD of MS2 coat protein [2] [nM] | apparent KD of MS2 coat protein [3] [nM] | apparent KD of MS2 coat protein [4] [nM] |
| --- | --- | --- | --- | --- | --- | --- |
| AACAGAAAAGAAAUAAAUAACAUGAGGAUCACCCAUGUCAACGGGUAAGAGCUCAACGAGCUGCGAGUCUUACUCAA [Enreaerre] (Eterna round: R96, puzzle: Sensor v2, turn-off variant) | 25.7 | 17.5 | 24.7 |  |  |  |
| UCUCGCGGGCAAGGAUAUCCUACGUUGUUCUGGCCCGUGUAUGUUACAUGAGGAUCACCCAUGUGGGAGAAGGUGCACCAGGGC [Design 39] (Eterna round: R96, puzzle: Exclusion NG 2) | 72.8 | 43.8 | 77.4 |  |  |  |
| CCGAAUAAGCAGGAUAUCGUUUCGGAAACGAAACGAGAAGGGCUAACAUGAGGAUCACCCAUGUUCCUUAACGG [Mat - Exclusion 6 - Eli Mod - D77] (puzzle: Exclusion 6) |  |  |  | 23.9 | 18.3 | 18 |
| CUGCUCCGUGUAGGAUAUGCGCGCACCCAACGCGCAGAAGGACAUGAGGAUCACCCAUGUAUGUUAUUAUCACGUGAGGCGCAG [Design 34] (Eterna round: R96, puzzle: Exclusion NG 1) | 28.8 | 14.4 | 17.7 |  |  |  |
| GCCUUAUCCGUCAGGAUAUACAGCCGCUCGUUGUUGUAGAAGGGACAUGAGGAUCACCCAUGUACGUACCAUUG [alecazam4] (Eterna round: R97, puzzle: Brourd's mod of Exclusion 4) | 27.2 |  | 22.7 |  |  |  |
| AGUACUAACACGUGAGUGUUAGUACAAUAAGCUUGUGAAACAUGAGGAUCACCCAUGUCCUCAUAAGCUCGUCUUAU [salish99_TOv2_r3_061] (Eterna round: R96, puzzle: Sensor v3, turn-off variant 2) | 16.5 | 496 | 18.5 |  |  |  |
| UUAAUUAAUUUAUUAGAUCCUCACAUGAGGAUCACCCAUGUGCAGGAUAUCAGCUCGUGUAGAGCUGAGAAGGGCACUAUAAAU [ExNG3/10-B3] (Eterna round: R96, puzzle: Exclusion NG 3) | 29.8 | 61.5 | 116 |  |  |  |
| UAACAUGUAGAAGGAUAUCUGCACGAUUAGUGCAGAGAAGGUCUAACAUGAGGAUCACCCAUGUAGAUCAUUAAUUAAUUAAUU [ENG1/8-B1] (Eterna round: R96, puzzle: Exclusion NG 1) | 15.2 | 8.43 | 12.4 |  |  |  |
| GUGUACGGAGGAUAUAUAUGGGCAGGCUGACCUGCAGCUUCACAUGAGGAUCACCCAUGUAGAAGGCUGUACAC [Mat - Exclusion 2 - Mod of Hyphema - D98] (puzzle: Exclusion 2) |  |  |  |  | 33.2 |  |
| CGCUGGACAGGAUAUGUUCUUGGGCACUUGAGGAUCACCCAAGUCAUCAAGAAAUCAGGCACAGAAGGGUUUAUGG [salish99_ex5_r4_021] (Eterna round: R97, puzzle: Exclusion 5) | 18.7 |  | 19.9 |  |  |  |
| CUCCGGCAUGUAGGAUAUGGAUCCGAUUAGGAUCCAGAAGGACAUGAGGAUCACCCAUGUACAUGUAAACAGUCAUCACCGGAC [salish99_ExNG1_r04_202] (Eterna round: R96, puzzle: Exclusion NG 1) | 284 | 29.9 | 44.2 |  |  |  |
| UUAAUGGCUGUGAGGAUAUCGGAUAGAUAGAUAUUCGAGAAGGCACAUGAGGAUCACCCAUGUGUGAUCAGAGA [Brourd's EX4 #62] (Eterna round: R97, puzzle: Brourd's mod of Exclusion 4) | 466 |  | 144 |  |  |  |
| UUAGUGUGAGGAUAUGGUAAAGAUAAGAUGAUGAAAGAACUCCAGAAGGCACAUGAGGAUCACCCAUGUAGAUG [JL-ex4-2.13 Jieux mod] (puzzle: Exclusion 4) |  |  |  | 67.4 | 35.4 | 30.6 |
| CGUGCGUAUGUGAGGAUAUGCUGGUCCUUGGAUCGGCAGAAGGCACAUGAGGAUCACCCAUGUGGUGUCGUACC [salish99_Bmod_ex4_074] (puzzle: Brourd's mod of Exclusion 4) |  |  |  |  | 123 |  |
| ACAUGAGGAUCACCCAUGUGAAAACAAUGGCUGACACAGAGAUAGGAUAUAUGUGCAUAUCAAACAUAGAAGGGUCAUAACUGG [Deportation 85 - Jieux - Exclusion NG 3] (Eterna round: R96, puzzle: Exclusion NG 3) |  | 40.6 |  |  |  |  |
| AAGUAUAGAGGAUAUAGUGAGUACUACAUGAGGAUCACCCAUGUUCUUCAUUACGUAUUUCUAGAAGGCUGAUAAA [EX-5 Malc#24] (puzzle: Exclusion 5) |  |  |  | 611 | 261 | 289 |
| UUGUACCGGUGAGGAUAUUUUUAAUAGAACUUUAUGAUAUACAUGAGGAUCACCCAUGUUACUUUAAAGAAGGCAUCGGAUUAU [JL JR Sub091 mod 1] (Eterna round: R96, puzzle: Exclusion NG 2) |  | 12.9 |  |  |  |  |
| UUUAAUUUUUUUUUUUUACAAGCUUUUUGCUCGUCUUAUACAUGAGGAUCACCCAUGUAAGUGGAAGAUAAAUUAUC [JMF 10] (puzzle: Sensor v3, turn-off variant 2) |  |  |  | 18.2 | 21.4 | 16.5 |
| AAGGGUACUUUCAGAACGACAUGAGGAUCACCCAUGUAGACUGAGGAUAUCUGCUACUAAGGACGGGAGAAGGCAGUGUAAUGU [Ex NG3 #74] (Eterna round: R96, puzzle: Exclusion NG 3) | 10.6 | 11.1 | 14.2 |  |  |  |
| UUUGUUUAUGUAGGAUAUGCCUGGCGUGCCUUCGCAGAAGGACAUGAGGAUCACCCAUGUAUUGCGGUCUGCGUUCAGAUCGCG [salish99_ExNG1_r4_029] (Eterna round: R96, puzzle: Exclusion NG 1) | 52 | 34.8 | 43.2 |  |  |  |
| UUUUGUUCAGGAUAUGUAGAAUUUAACAUGAGGAUCACCCAUGUAGAUCCUGAAUAAACUACAGAAGGGAACAUUU [Mat - Exclusion 5 - Eli Mod - D15] (Eterna round: R97, puzzle: Exclusion 5) | 215 |  | 27.4 |  |  |  |
| UAAUACAAGUAAGGAUUCUACAUGAGGAUCACCCAUGUGCUCGUCUUAUAAAGUACUAUCACGAAAGUGAUAGUACU [Mat - Sensor v3 - turn-off var 1 - Eli Mod - D100] (puzzle: Sensor v3, turn-off variant 1) |  |  |  | 21.8 | 199 | 22.5 |
| AGACGGAGAAAAGGAUAUGAGACACUAGACGUCUCAGAAGGUUUAGCCAGUAGCUCCAACAUGAGGAUCACCCAUGUGGUCGUA [Eternabot solution 41] (Eterna round: R96, puzzle: Exclusion NG 1) | 50 | 108 | 184 |  |  |  |
| GGUCUGCGAGGAUAUACAUGAGGAUCACCCAUGUGCGAGAUACUAGUGAGGUCGAUUGGUAGAAGGCGCGGACA [Mat - Exclusion 3 - Mod of JL D84] (puzzle: Exclusion 3) |  |  |  |  | 90.4 |  |
